# Columns and labels:
# [1] = test system: CC(=O)SCCC(C)(C)C; assay: purified protein, by the assay type; conditions: sodium-phosphate buffer pH 8, 27°C
# [2] = test system: CC(=O)SCC[N+](C)(C)C; assay: purified protein, by the assay type; conditions: sodium-phosphate buffer pH 8, 27°C
substance,measurement,setting,value
recombinant HuAChE mutant Tyr337Ala (Homo sapiens; Y368A),Km,[1]; other: Tyr337Ala,200 ± 30 µM
same,Km,[2]; other: Tyr337Ala,100 ± 10 µM
recombinant HuAChE mutant Phe338Ala (Homo sapiens; F369A),Km,[1]; other: Phe338Ala,300 ± 70 µM
same,Km,[2]; other: Phe338Ala,240 ± 20 µM
recombinant HuAChE mutant Glu202Gln (Homo sapiens; E233Q),Km,[1]; other: Glu202Gln,230 ± 30 µM
same,Km,[2]; other: Glu202Gln,350 ± 40 µM
recombinant HuAChE mutant Glu450Ala (Homo sapiens; E481A),Km,[1]; other: Glu450Ala,200 ± 40 µM
same,Km,[2]; other: Glu450Ala,350 ± 40 µM

# Source: patent EP0651055A2 (priority 1993, dated 1995)
